Here are results for one substance from PMC7888707.

Experiment [1] has as its target PECAM-1–GFP (wild type, stably expressed in HL-60 cells) (human) (UniProt P16284). In words: FRET or BRET; FLIM measurement of FRET between the GFP and RFP tags in dHL-60 cells perfused (1.5 dynes/cm2) over TNF-activated HUVEC monolayers, fixed in 4% PFA in mid-TEM; read at breached junctions.
Experiment [2] has the same target. The experiment in a line: FRET or BRET; FLIM measurement of FRET between the GFP and RFP tags in dHL-60 cells perfused (1.5 dynes/cm2) over IL-1β-activated HUVEC monolayers, fixed in 4% PFA in mid-TEM; read at breached junctions.
Experiment [3] has the same target. The experiment in a line: FRET or BRET; FLIM measurement of FRET between the GFP and RFP tags in HL-60 cells plated on poly-L-lysine-coated coverslips at 37°C for 5 min, fixed in 4% PFA (resting, not in TEM). (BRET reads energy transfer from a luciferase to a nearby fluorophore.)

For “L-selectin–RFP (wild type, stably expressed in HL-60 cells) (from UniProt P14151 39-372) (natural protein)”, the FRET efficiency in experiment [1] came out at 5.39%; in experiment [2] it was 1.21%; in experiment [3], 0.982%.
